This note sets out measurements from US20100016434.

The target in the data set is T1, biotinylated HIF1α peptide, Q16665.
T1 chain: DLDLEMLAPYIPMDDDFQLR

B1: EGLN3 in vitro translate (protein)
chain: MPLGHIMRLDLEKIALEYIVPCLHEVGFCYLDNFLGEVVGDCVLERVKQLHCTGALRDGQLAGPRAGVSKRHLRGDQITWIGGNEEGCEAISFLLSLIDRLVLYCGSRLGKYYVKERSKAMVACYPGNGTGYVRHVDNPNGDGRCITCIYYLNKNWDAKLHGGILRIFPEGKSFIADVEPIFDRLLFFWSDRRNPHEVQPSYATRYAMTVWYFDAEERAEAKKKFRNLTRKTESALTED
For the protein B1, the “EGLN3 prolyl hydroxylase activity on the HIF1α peptide, read by capture of 35S-labeled pVHL” value is “EGLN3 hydroxylase activity was diminished in the face of increasing amount of succinate”.
